Experimental data published in the nanobody polyreactivity screen of Harvey et al. (2022).

assay: yeast display, Sf9 membrane polyspecificity reagent, FACS + sequencing; frameworks hold sequencing errors
Summary of the method: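 In a synthetic yeast display library (Saccharomyces cerevisiae BJ5465), nanobody expression was induced with galactose for 36–48 hours. FACS gates were set low and high (top ~1%) using anti-HA fluorescence for expression and streptavidin fluorescence for binding of the Sf9 membrane reagent. Each polyreactivity label is drawn from the gate of origin.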

Q: With “QVHLQESGGGLMQAGGSQRLSSAASGSISYYSDMGWYRQAPGKEREFVAGIGYGTTTNYADSVKGRFTTSRDNGKNTVYLQMSSMKPEDTAVYYCAAYQGNGYEFYYWGQGTQVTVRS” as the sequence, how does the “polyreactivity (PSR sort gate)” value read?
A: Its value is “low polyreactivity”.

Q: Which “polyreactivity (PSR sort gate)” value does the source give for “QVHLQESGGGLVQACGSQRLSCAARGSISEGQDMGWYRRAPGKEREFVAGIAPGATTYYADSVRGRFTISRDNANNTVSLQMNSLKPEDTAVYYCAARTVTETDHDYWGQGTQVTVSS” here?
A: The value was “low polyreactivity”.

Q: For “QVHLQESGGGLVQAVGSLRLSCAASGNISEYYDMGWYRQAPGKERKFVAGIDFGAITNYADSVKGRFTISRDNAKNTEYLQMRSLKPEDTAVYYCAAGVYDWYAYDYWGQGTQVTVSS”, which “polyreactivity (PSR sort gate)” value is on record?
A: The value was “high polyreactivity”.

Q: Which “polyreactivity (PSR sort gate)” value does the source give for “QVHLVDSGGGKVQAGGSLRLSCAASGSIFYWNAMGWYRQAPGKERELVATITITTSTNYADSVKGRFTISRDNATHSVYLQMNSMKPEDTAVYYCNAGAPYRYLDEYNYWGQGTQVTVSS” here?
A: Its value is “low polyreactivity”.

Q: With “QVHLVDSGGGLVQAGGRLRLSCAASASIFLIYAMGWYRQAPGQERELVAAINYSGVRTYYADSVKGRFTISRDNAKNTVYLQMNSLKPEDSAVYYCAVSRGGAYYQYGYWGQGTQVSVSS” as the sequence, how does the “polyreactivity (PSR sort gate)” value read?
A: Its value is “high polyreactivity”.

Q: Which “polyreactivity (PSR sort gate)” value does the source give for “QVHLVDSGGGLVQAGGSLRLSCAASGRIIYGNAMGWYRQSPGKERELVAAISSGTSTNYADSVKGRFTISRDNAKNTVYLQMNSLKPEDTAVYYCAAGSYSRYIYSLYFDFDYWGQGTQVTVSS” here?
A: The value was “low polyreactivity”.

Q: With “QVHLVDSGGGLVQAGGSLRLTCSASGFTFRYYTMGWYIQAPGKERELVAVIRSTGSTNYADSVKGRFTISRDNAKNTVYLQMNSLKPEDTAVYYFNAARGWYNPPKYGSIGFDFWGQGTQVTVSS” as the sequence, how does the “polyreactivity (PSR sort gate)” value read?
A: The value was “high polyreactivity”.

Q: For “QVHLVESCGALVHAGGSLRLSCAASGSIFRGNAMGWYRQAPWKERELVAAITGSGGNTYYADSVKGRFTISRDNAKNTVYLQMNSLKPEDTAVYYCNADGWNTYIGPRRYSYDYWGQGTQVTISS”, which “polyreactivity (PSR sort gate)” value is on record?
A: The value was “low polyreactivity”.

Q: For “QVHLVESCGGLVQARGSLRLSCAASGSTIDYNSMGWYRLAPWKEREMVATITSSVGSTYYEDSVKGRYTISRDNAKNTVDLHMNCVKPEDTAVYYCAADYDYPDYYAPSWRRYTYWGQGTQVTVSS”, which “polyreactivity (PSR sort gate)” value is on record?
A: Its value is “low polyreactivity”.

Q: Which “polyreactivity (PSR sort gate)” value does the source give for “QVHLVESGGALVQAGRSLRLSCAASGSTFTINVKGWYRQAPGKERELVAAINGGGRTNYADSVKGRFTISRDNAKNTVYLLMNSLKPEDTAVYYCAADGLSNVRQMDYWGQGTQVTVSS” here?
A: The value was “low polyreactivity”.

Q: Which “polyreactivity (PSR sort gate)” value does the source give for “QVHLVESGGCLVQAGGSLRLSCAASGSIFGDYVMAWYRQAPGKERELVAAITRGGSTYYADSVKGRFTFSRDNAKNTVYLQMNSLKPEDTAVYYCAASYYFVQWGWYYYWGQGTQVTVSS” here?
A: The value was “low polyreactivity”.

Q: Which “polyreactivity (PSR sort gate)” value does the source give for “QVHLVESGGCLVQAGGSLRLSGAASGGNFSTYAMGWYRQAPGKERELVSSITERGGSTYYADSVKGRFTISRDNAKNTFDLQMNSLKPEDTAVYYCAADWDASWWLVPTSSYDYWGEGTQVTVSS” here?
A: The value was “low polyreactivity”.

Q: For “QVHLVESGGGFVQAGGSLGLSCAASGLTFSGNTMGCYTPAPGKERELVAAISSDGSTNYADSVKGRFTLSRDNAKYSVYLQMNSLKPEDTAVYYCNARVRYYFAFWRDYWGQGTQVTVSS”, which “polyreactivity (PSR sort gate)” value is on record?
A: Its value is “low polyreactivity”.

Q: With “QVHLVESGGGFVQAGGSLRLSCAASGSICGSYAMGWYRQAPGKERELVAAISKSGGNTYYADSVKGRFTISRDNAKNTVYLQMNSVKPEDTAVYYCAAYGFYRWRGYDYSGQGTQVTVSS” as the sequence, how does the “polyreactivity (PSR sort gate)” value read?
A: The value was “high polyreactivity”.

Q: For “QVHLVESGGGIVQAGGILRLSCAASGNTFYENVMGWYRQTPGKEREFVAAITYIGGNTYYADSVKGRFTISRDNAKNTVYLQMNSLKPEDTAVYYCAAEWDWPTYYTYYWYFSYDYWGQGTQVTVSS”, which “polyreactivity (PSR sort gate)” value is on record?
A: The value was “low polyreactivity”.

Q: For “QVHLVESGGGLDQAGGSLRLRCAATGRTFKYYAMGWYRQAPGKERELVAAISGSGGSTYYADSVKGRFTISRDNAKNTVYLQMNSLKPEDTAVYYCAAAGKETSRYAYDSWGQGTQVTVSS”, which “polyreactivity (PSR sort gate)” value is on record?
A: The value was “high polyreactivity”.

Q: For “QVHLVESGGGLDQARGSHRLSCAASGYTIPTYAMGWYRHAPGKERELVAAINWSGSRTYYADSVKGRFTISRDNAKNTVYLQMNSVKPEDTAFYYCAAYAYRVGPIRRHDYWGQGTQVTVSS”, which “polyreactivity (PSR sort gate)” value is on record?
A: The value was “high polyreactivity”.

Q: Which “polyreactivity (PSR sort gate)” value does the source give for “QVHLVESGGGLFQAGGSLPLSCAASGYIFVRYAKGWYRQAPGKEREFVAAISSSGGSTRYADSVKARFTLSRDNAKNTVYLQMNSLKPEDTAVYYGAATRVARHGSPMYYWGQGTQVTVSS” here?
A: The value was “high polyreactivity”.

Q: With “QVHLVESGGGLFQAGGSLRLSCAASGRTFYYNAMGWYRQAPGKEREFVAAITWSGTRTYYADSVKGRFTISRDNAKNTVYLQMNSLKPEDTAVYYCNARAGSGSRFGYWGEGTQVTVSS” as the sequence, how does the “polyreactivity (PSR sort gate)” value read?
A: The value was “high polyreactivity”.

Q: Which “polyreactivity (PSR sort gate)” value does the source give for “QVHLVESGGGLFQAGGSLRLSCAASGRTFYYYGMGWYRQAPGKERELVASITNGGNTNYADSVKGRFTISRDNAKNTVYLQMNSLKPEDTAVYYCANDVPYWRPVVRYDYWGQGTQVTVSS” here?
A: The value was “low polyreactivity”.

Q: For “QVHLVESGGGLLQAGGSLRLSCAASGYTFVNYAMGWYREAPRKEMELVAAISYRGGSTSYADSVKGRFTISRDNAKNTVYLQMKSLKPEDSAVYYCAVVGQNWQSLRYDYWGQGTQVTVSS”, which “polyreactivity (PSR sort gate)” value is on record?
A: The value was “high polyreactivity”.

Q: Which “polyreactivity (PSR sort gate)” value does the source give for “QVHLVESGGGLVHAGGSIRLSCAASGSIFGYYAMGWYRQAPGKEREFVAAITWNGGSTYYADSVKGRFTISRDNAKNTVYLEMISLKPEDTAVYYCARTSYARFRNGWTYDHWGQGTQVSVSS” here?
A: The value was “low polyreactivity”.

Q: Which “polyreactivity (PSR sort gate)” value does the source give for “QVHLVESGGGLVLAGGSLRLSCAASGRIFSFYAMGWYRQAPGKERELVAAISSGGNTYYADSLKGRFTISRDNAKNTVYLQMNSLKPEDTAVYYCATGYRNLSSRYGYWGQGTQVSVSS” here?
A: Its value is “high polyreactivity”.

Q: Which “polyreactivity (PSR sort gate)” value does the source give for “QVHLVESGGGLVLAGGSLRLSCAASVRIYTRNVMGWYRQAPGKERELVAAISTSGGSTFYADSVKGRFTISRDNAKNTVYLQMNSLKPEDTAVYYCAKRRYGKLEYWGQGTQVTVSS” here?
A: Its value is “high polyreactivity”.

Q: For “QVHLVESGGGLVPAGGSLRLSCAASGGIFIFYAMGWYRQAPGKERELVAAISNVSSTNYADSVKGRFTISRDNAKNTVYLQMNSLKPEDTAVYYCNAVGVPSEYYSWGQGTQVTVSS”, which “polyreactivity (PSR sort gate)” value is on record?
A: Its value is “low polyreactivity”.

Q: Which “polyreactivity (PSR sort gate)” value does the source give for “QVHLVESGGGLVQAAGSLRLSCAASVSTIPPNAMGWDRQAPGKEREFVAAISSVGSSYYADSVKGRFTISRDNAKKTFYLQMNSLKPEDTAVYYCAKGSWYWVEPYDYWGLGTQVTVSS” here?
A: Its value is “high polyreactivity”.

Q: With “QVHLVESGGGLVQAGCSLRLSCAASGSIFYRYAMGWYRQEPGKECELVAAIRTRGGTYYADSVKGRFTISRDNAKNTVYLQIKSLKPEDTAVYYCNAGYGTWYLWYEYWGQGTQVTVSS” as the sequence, how does the “polyreactivity (PSR sort gate)” value read?
A: The value was “high polyreactivity”.

Q: Which “polyreactivity (PSR sort gate)” value does the source give for “QVHLVESGGGLVQAGGILRLSCPASGQTFWAYAMGWYRQAPGKERELVAAISWRGGSTYYADSVKGRFTISRDNAKNTVYLQMNSLKPEDTAVYYCAAQYLYYGGRRYDFWGQGTQVTVSS” here?
A: The value was “high polyreactivity”.

Q: With “QVHLVESGGGLVQAGGILRLSCSASGRIFSVNAMGWYRQSPGKERELVAAITTRGGTTYYADSVKGRFTISRDNAKNTVYLLMNSLKPEDTAVYYCAAESSWYVYWEWAHDYWGQGTQVTVSS” as the sequence, how does the “polyreactivity (PSR sort gate)” value read?
A: The value was “low polyreactivity”.

Q: With “QVHLVESGGGLVQAGGRLRLSCAASGFTFAHYDMGWYRQAPGKERELVAAITWSGSSTFYADSLKGRFTISRDNAKNTVYLQMYCMKPEDNAVYYCNADYDVSYWFYQDVIYDYWGQGTQVTVSS” as the sequence, how does the “polyreactivity (PSR sort gate)” value read?
A: The value was “low polyreactivity”.

Q: Which “polyreactivity (PSR sort gate)” value does the source give for “QVHLVESGGGLVQAGGRLRLSCAASGFTIGHYAMAWYRQAPGKERELVAAISSGDRTYYADSVKGRFTISRDNAKNTVYLQMNCLKPEDTAVYFCNGVYYSWAQSARFDYWGQGTQVTVSS” here?
A: The value was “low polyreactivity”.

Q: Which “polyreactivity (PSR sort gate)” value does the source give for “QVHLVESGGGLVQAGGRLRLSCAASGIIFRLYGMGWYRQAPGKEREFVATITWRGGRTNYADSVKGRFTIARDNAKNTVYLQMNSLKPEDTAVYYCAKVVRYARSNEYDSWGQGTQVTVSS” here?
A: Its value is “low polyreactivity”.

Q: With “QVHLVESGGGLVQAGGRLRLSCDASGRTFKGYAMGWYRQAPGQERELGAAISFTGGSTYYADSVKGRFTISRDNAKNPVDLQMNSLKPEDTAVYYCNAVNYRGYGYWGQGTQVTVSS” as the sequence, how does the “polyreactivity (PSR sort gate)” value read?
A: Its value is “high polyreactivity”.

Q: With “QVHLVESGGGLVQAGGSLRISCAASGFIFEPYAMGWYRQAPGKERELVAAISSTGGSTYADSVKGRFTISRDNAKNTVYIQMNSLKPEDTEGYYCAAKVRISRYTYGYWGQGNQVTVSS” as the sequence, how does the “polyreactivity (PSR sort gate)” value read?
A: Its value is “high polyreactivity”.

Q: Which “polyreactivity (PSR sort gate)” value does the source give for “QVHLVESGGGLVQAGGSLRISCAASGSTFYYYTMGWYRQAPGKERELVAISWDGDSTYYADSVKGRFTISRDNAKNTVYLQMNSLKPEDTAVYYFNAEYTWSGTKIYTYKYDFWGPGTQVTVSS” here?
A: Its value is “low polyreactivity”.

Q: For “QVHLVESGGGLVQAGGSLRITCAASGRIFWSYAMGWYRQAPGKEMELVAAITWSGGSTYYADSVKGRFTISRDNAKNTVYLQMIRLKPEDTAVYYCNAATGQPVGLDYWGQGTQVTVSS”, which “polyreactivity (PSR sort gate)” value is on record?
A: Its value is “low polyreactivity”.

Q: Which “polyreactivity (PSR sort gate)” value does the source give for “QVHLVESGGGLVQAGGSLRLICAASGFTFAVYAMGWYRQAPGKERELVAAISRSSGRTYYADSVKGRFTISRDNAKNTVYLQMNSLKPEDTAVYYCNARRGSPAPYDYWGQGTQVTVSS” here?
A: The value was “high polyreactivity”.

Q: Which “polyreactivity (PSR sort gate)” value does the source give for “QVHLVESGGGLVQAGGSLRLICAASGSTFWSYAMGWYRQAPGKERELVAAITSGGRTYYADSVKGRFTISRDNAKNTVYLQMNRLKPEYTAVYNCNAVVRHTYRRFDYWGQGTQVTVSS” here?
A: Its value is “high polyreactivity”.

Q: For “QVHLVESGGGLVQAGGSLRLSCAASASTFLYYAMGWNRQPPGKERELVAVISWSGVSTYYADSVKGRFTSSRDNAKYTVYLQMNSLKPEDTAVYYCNTGNHYIRTYGYWGQGTQVTVSS”, which “polyreactivity (PSR sort gate)” value is on record?
A: Its value is “low polyreactivity”.

Q: With “QVHLVESGGGLVQAGGSLRLSCAASASTFQSNAMGWYRQAPGKERELVATITQSGATTYYADSVKGRFTISRDYAKNTVYLQMNSLKPEDTAVYYCNVDTFQKRWFWLDLDGGYWGQGTQVTVSS” as the sequence, how does the “polyreactivity (PSR sort gate)” value read?
A: Its value is “low polyreactivity”.

Q: For “QVHLVESGGGLVQAGGSLRLSCAASGFIFHLNSMGWYRQAPGTERELVAAFSWNGGSTFYADSVKGRFTISRDNAKNTVYLQMNSLKPEDTAVYYCNADFRPAYTYDYWGQGTQVTVSS”, which “polyreactivity (PSR sort gate)” value is on record?
A: The value was “low polyreactivity”.
